{
  "source": "paper PMC11750108",
  "about": "“FlbB forms a distinctive ring essential for periplasmic flagellar assembly and motility in Borrelia burgdorferi” (PLOS Pathogens, 2025)",
  "proteins": {"B1": {"name": "FLAG-FlbB-His6 (deleted the first 42 aa from the FlbB) (domain or fragment)", "chain": "FPEFVRTKLLGETSLVFDHNSNIILDEARLVKEREAIDIKNQQIEKLKEDLKLKEDSLNKLEFELKQKQKDLDLKQKVIDDIINKYNDEEANILQTAVYLMNMPPEDAVKRLEDLNPELAISYMRKIEELSKKEGRLSIVPYWLSLMDSKKAAILIRKMSVSSLE", "notes": "FlbB, periplasmic flagellar collar protein of Borrelia burgdorferi (205 amino acids); the first 42 aa (with the N-terminal transmembrane helix) deleted; The deletion of the first 42 aa is stated only for the SEC-SAXS sample; Monomer estimated at 20.85 kDa; also called FlbB-6His; source: E. coli codon plus cells; in lysate of mixed cells (pull-downs); purified recombinant (SEC-SAXS, far-western); …"}},
  "target": "the molecule itself",
  "experiment": "SEC-SAXS; purified FLAG-FlbB-His6 at 4 mg/ml, 10 mM HEPES, 140 mM NaCl, pH 7.3; Shodex 802.5 SEC column, SIBYLS beamline 12.3.1; molecular weight from the volume of correlation",
  "data": [
    {"protein": "B1", "values": [
      {"measurement": "stoichiometry N", "result": 2}
    ]}
  ]
}
